{"source": "paper PMC549393", "binders": {"B1": {"name": "U6 (SNR6) TATA-DNA, 30 bp (dsDNA)", "DNA 1": "TTTTCGGCTACTATAAATAAATGTTTTTTT", "DNA 2": "AAAAAAACATTTATTTATAGTAGCCGAAAA"}}, "molecular_target": "T1, TBP (TATA-binding protein);Brf1;Bdp1 (yeast?;yeast?;yeast?, UniProt P13393;P29056;P46678 1-240;1-596;1-594, ||)", "T1 sequence 1": "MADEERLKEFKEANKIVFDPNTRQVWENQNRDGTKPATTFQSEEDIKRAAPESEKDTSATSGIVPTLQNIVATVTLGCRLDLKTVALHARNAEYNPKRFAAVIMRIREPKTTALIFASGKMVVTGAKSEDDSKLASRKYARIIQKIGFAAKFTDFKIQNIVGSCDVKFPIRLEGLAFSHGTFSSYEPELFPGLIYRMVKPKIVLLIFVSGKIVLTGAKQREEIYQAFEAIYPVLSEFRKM", "T1 sequence 2": "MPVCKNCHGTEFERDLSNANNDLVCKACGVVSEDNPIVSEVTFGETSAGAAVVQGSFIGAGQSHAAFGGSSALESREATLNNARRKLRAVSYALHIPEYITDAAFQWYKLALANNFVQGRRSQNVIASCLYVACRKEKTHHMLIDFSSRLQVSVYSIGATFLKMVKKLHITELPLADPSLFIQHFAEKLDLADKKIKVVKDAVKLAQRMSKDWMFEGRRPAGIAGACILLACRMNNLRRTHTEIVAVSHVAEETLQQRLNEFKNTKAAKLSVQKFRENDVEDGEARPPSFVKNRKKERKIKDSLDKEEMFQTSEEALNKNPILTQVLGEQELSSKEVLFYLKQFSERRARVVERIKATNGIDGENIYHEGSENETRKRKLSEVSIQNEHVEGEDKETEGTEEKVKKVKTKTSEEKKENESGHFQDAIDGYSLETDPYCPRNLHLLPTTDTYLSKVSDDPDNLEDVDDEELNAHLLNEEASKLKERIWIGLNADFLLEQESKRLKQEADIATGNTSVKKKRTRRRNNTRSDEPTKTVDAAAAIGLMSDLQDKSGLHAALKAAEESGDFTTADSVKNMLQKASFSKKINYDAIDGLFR", "T1 sequence 3": "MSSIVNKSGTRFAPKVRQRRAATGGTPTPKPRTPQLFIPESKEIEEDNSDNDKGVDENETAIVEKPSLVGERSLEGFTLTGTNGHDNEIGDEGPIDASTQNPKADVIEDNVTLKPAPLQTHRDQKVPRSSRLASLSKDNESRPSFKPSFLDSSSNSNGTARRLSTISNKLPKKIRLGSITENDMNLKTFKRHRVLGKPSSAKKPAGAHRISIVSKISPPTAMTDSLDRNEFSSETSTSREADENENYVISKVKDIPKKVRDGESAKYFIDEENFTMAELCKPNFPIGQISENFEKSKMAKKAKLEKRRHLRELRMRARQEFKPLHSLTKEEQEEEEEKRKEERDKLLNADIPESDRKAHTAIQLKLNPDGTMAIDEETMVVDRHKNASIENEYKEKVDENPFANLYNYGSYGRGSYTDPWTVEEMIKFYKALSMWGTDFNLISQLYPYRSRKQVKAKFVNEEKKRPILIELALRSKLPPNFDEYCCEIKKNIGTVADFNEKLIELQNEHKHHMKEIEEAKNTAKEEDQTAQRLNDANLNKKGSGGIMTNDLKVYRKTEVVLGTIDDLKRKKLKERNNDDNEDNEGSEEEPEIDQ", "assay": "EMSA"}
{"binder": "B1", "values": [{"measurement": "binding result", "result": "binds"}]}
